Data from US20220143185A1, “ORALLY ACTIVE SMALL MOLECULE INHIBITOR OF PAI-1” (Northwestern University, priority 2019, published 2022).

Key:
PCSK9 [1] = target: T1, PCSK9 (Homo sapiens, UniProt Q8NBP7)
PCSK9 [2] = target: T1, PCSK9; experiment: Plasma PCSK9 and PAI-1 levels in hypercholesterolemic patients treated with PCSK9 monoclonal antibodies; type: in vivo; parameters: from tissue; host or cells: plasma of hypercholesterolemic patients; settings: before vs during treatment; for plasma PAI-1 levels: n=28, p=0.0029
Protocol: Plasma samples from hypercholesterolemic patients were obtained from the OHSU Center for Preventive Cardiology Registry and Biorepository, approved by OHSU Institutional Review Board (17329).
Total cholesterol was quantified in the murine plasma using an enzymatic determination (Pointe Scientific, Cat #C7510). The lipoprotein profile of the murine plasma samples was assessed running a fast-phase liquid chromatography (FPLC), in brief 100 μL of plasma (from one animal or a pool of several samples of the same conditions) were loaded to a Superose 6 column (GE HealthCare, Cat #29-0915-96) at a flow rate of 0.5 mL/min in running buffer (0.15M NaCl, 0.01M Na2HPO4 and 1 mM EDTA). Fractions were collected every minute for 41 minutes and analyzed for cholesterol concentrations as described above. Murine plasma PCSK9 levels were determined using an ELISA kit (MBL International, Cat #CY-80781). Murine PAI-1 levels were quantified using an ELISA kit (Molecular Innovations, Cat #MPAIKT-TOT). Murine PAI-1 activity levels were quantified by ELISA (Molecular Innovations, Cat #MPAIKT). Human PAI-1 levels were quantified by ELISA (Molecular Innovations, Cat #HPAIKT-TOT).
PAI-1 and PCSK9 levels were also quantified in plasma samples obtained from a human cohort with and without heart failure with preserved ejection fraction (HFpEF). There was again a positive correlation between PAI-1 and PCSK9 levels in these patients, similar to that in mice and in the Amish kindred (FIG. 19D, p<0.0001; R=0.351).

Molecule	proteolytic degradation of PCSK9 in vitro (Western blot for PCSK9, silver stain) (PCSK9 [1])	total plasma PCSK9 levels (PCSK9 [2])	plasma PAI-1 levels (PCSK9 [2])
recombinant human low molecular weight urokinase	efficiently promoted the proteolytic degradation of recombinant human PCSK9		
alirocumab		large increase	significant reduction
evolocumab (antibody, chains of the INN, looked up, V domains shown) VH: EVQLVQSGAEVKKPGASVKVSCKASGYTLTSYGISWVRQAPGQGLEWMGWVSFYNGNTNYAQKLQGRGTMTTDPSTSTAYMELRSLRSDDTAVYYCARGYGMDVWGQGTTVTVSS VL: ESALTQPASVSGSPGQSITISCTGTSSDVGGYNSVSWYQQHPGKAPKLMIYEVSNRPSGVSNRFSGSKSGNTASLTISGLQAEDEADYYCNSYTSTSMVFGGGTKLTVL		large increase	significant reduction
